Assay results taken from patent US11389516B2, “Composition comprising UNE-L domain of leucyl-tRNA synthetase as effective ingredient for augmenting muscle” (GACHON UNIVERSITY OF INDUSTRY-ACADEMIC COOPERATION …, priority 2017, dated 2022).

Assays:
[1] = tested on: S6K1 phosphorylation (mTORC1 activation); assay: Amino acid mediated mTORC1 activation through S6K1 phosphorylation, Western blotting, HEK293 cells treated with SAR405; assay type: cell-based
Experimental: Particularly, HEK293 cells were transducted with lentivirus expressing LRS shRNA (shLRS) or scrambled sequence shRNA (control). The cells were cultured in DMEM supplemented with 10% fetal bovine serum (FBS) in a 37° C., 5% CO2 incubator for 3 days. As for the LRS shRNA, shLRS-1 (TRCN0000290440) or shLRS-2 (TRCN0000290511) was used. As for the scrambled sequence shRNA, the sRNA previously described (Yoon, et al., J Cell Biol., 2011 195(3); 435-447) was used. Lentivirus packaging and transduction were performed according to the methods described in the following paper (Sun, et al., Proc Natl Acad Sci USA., 2008, 105(24); 8286-8291). The simultaneous expression of Vps15 and Vps34 was necessary for the stability and activity of Vps34, so the cells were transfected with bicistronic Myc-Vps34/V5-Vps15 plasmid (Yan, et al., Biochem J., 2009, 417(3); 747-755), followed by culture in the absence of FBS for overnight. On the next day, the cells were cultured in DMEM without leucine or amino acid for 2 hours, followed by stimulating the cells with 0.8 mM leucine or amino acids at the same concentration as DMEM for 30 minutes. The cell lysate was analyzed by Western blotting according to the conventional method. The intensity of the bands obtained by Western blotting was quantified by measuring the X ray film image density using Image J software.
HEK293 cells were treated with SAR405 (APExBIO, US), a Vps34 specific inhibitor, and then amino acid mediated mTORC1 activation was investigated through S6K1 phosphorylation. […] Western blotting was performed by stimulating cells with amino acids by the same manner as described in Example <1-1> except that HEK293 cells were treated with SAR405 at the concentration of 3 μM and co-transfected with Myc-LRS and Myc-S6K1. At this time, the cells untreated with SAR405 were used as the control. All the quantification data was presented as mean±standard deviation of the values obtained from at least three independent experiments performed separately. Statistical significance was analyzed by student's t-test (*p≤0.05. **p≤0.01).

Vps34 = biological target: T1, Vps34 (Mus musculus, UniProt Q6PF93); assay: In vitro Vps34 lipid kinase assay on Vps34 immune complex from MEF cells with added purified GST protein; assay type: biochemical; conditions: FIG. 7
T1 construct: endogenous in cells; host or cells: MEF cells
Experimental: To perform in vitro Vps34 lipid kinase assay, the Vps34 immunocomplex was washed with PBS containing 1% NP-40 three times, with PBS containing 100 mM Tris (pH 7.4) containing 500 mM LiCl three times, and with TNE buffer (10 mM Tris (pH 7.4), 100 mM NaCl and 1 mM EDTA) twice, then 2 mg/ml of […] and 10 μCi ^32P-γ-ATP (PerkinElmer) were added to TNE buffer. The reaction was terminated by adding 20 μl of 8 N HCl and lipid was extracted with 160 μl of CHCl3:MeOH (1:1). ^32P-PI(3)P was separated on a thin layer chromatography plate (EMD Chemicals Inc.) using CHCl3:MeOH:NH4OH:water (60:47:2:11.3) as a solvent, followed by measuring Vps34 activity by radiograph. The activity of Vps34 was quantified by standardizing the Vps34 amount included in the immune precipitate determined by quantification of Western blotting. To measure the amount of intracellular PI(3)P, ELISA-format assay was performed according to the manufacturer's protocol, leading to quantification of the amount of PI(3)P from nonlinear fitting of the PI(3)P standard. All quantificative data was presented as mean±standard deviation of the values obtained from at least three independent experiments performed separately. Statistical significance was analyzed by student's t-test ([…]. **p≤0.01).
Particularly, MEF cells were cultured in the absence of FBS for overnight. On the next day, the cells were cultured in leucine-free DMEM for 2 hours. Anti-Atg14L antibody was added in the cell lysate thereto, followed by immunoprecipitation to eliminate Atg14L from the cell lysate. Then, anti-Vps34 antibody was added thereto, followed by immunoprecipitation of Vps34. The Vps34 immune complex was placed in TNE buffer supplemented with 2 mg/ml of PI, 10 μCi ^32P-γ-ATP (PerkinElmer) and 3.75 μg of GST protein in the presence or absence of leucine for 20 minutes at 30° C. […] All the quantification data was presented as mean±standard deviation of the values obtained from at least three independent experiments performed separately. Statistical significance was analyzed by student's t-test (*p≤0.05. **p≤0.01).

[2] = tested on: S6K1 phosphorylation (mTORC1 activity); assay: Western blotting of phosphorylated S6K1 in knock-down HEK293 cells with exogenous phosphatidic acid; assay type: cell-based; conditions: 100 μM PA, amino acid stimulation
Experimental: Particularly, HEK293 cells were transducted with lentivirus expressing LRS shRNA (shLRS) or scrambled sequence shRNA (control). The cells were cultured in DMEM supplemented with 10% fetal bovine serum (FBS) in a 37° C., 5% CO2 incubator for 3 days. As for the LRS shRNA, shLRS-1 (TRCN0000290440) or shLRS-2 (TRCN0000290511) was used. As for the scrambled sequence shRNA, the sRNA previously described (Yoon, et al., J Cell Biol., 2011 195(3); 435-447) was used. Lentivirus packaging and transduction were performed according to the methods described in the following paper (Sun, et al., Proc Natl Acad Sci USA., 2008, 105(24); 8286-8291). […] The cell lysate was analyzed by Western blotting according to the conventional method. The intensity of the bands obtained by Western blotting was quantified by measuring the X ray film image density using Image J software.
Particularly, HEK293 cells were transduced with shLRS, shRagD lentivirus or lentivirus expressing scrambled sequence shRNA (control), and then stimulated with amino acids by the same manner as described in Example <1-1> in the presence or absence of 100 μM phosphatidic acid (PA), a product of PLD1. Lysates of the cells were analyzed by Western blotting according to the method conventionally performed.

C2C12 cells = assay: MHC/DAPI immunostaining of differentiated C2C12 cells (differentiation index, fusion index, myotube size); assay type: cell-based, mouse; conditions: given as NP-UNE-L, three days differentiation, FIG. 15
Experimental: Particularly, to investigate the role of the UNE-L domain of LRS, NP-UNE-L was constructed by binding the UNE-L domain of LRS to nanoparticles (NP) through the conventional method.
C2C12 cells, the mouse muscle cells, were maintained in DMEM supplemented with 4.5 g/l of glucose and 10% FBS in a 37° C., 7.5% CO2 incubator. To induce myogenesis, the cells were cultured on a plate coated with 0.2% gelatin until 100% confluence and the culture medium was replaced with the differentiation-inducing medium containing 2% horse serum. The culture medium was replaced every day for 3 days. During differentiation for three days, the differentiation-inducing medium treated group, the differentiation-inducing medium and NP-UNE-L treated group, and the differentiation-inducing medium and NP treated group were compared.
After the differentiation of C2C12 cells for three days, Western blotting was performed with the cell lysate according to the conventional method. To compare the differentiation level of C2C12 cells, C2C12 cells were fixed and immunostained with MHC, a myocyte differentiation marker, and 4′,6-diamidino-2-phenylindole (DAPI), a cell nucleus marker (Yoon et al. 2013 Molecular biology of the cell, 24(23) 3754-3763). […] The differentiation index was calculated as the percentage of nuclei in the myotubes stained with MHC and the fusion index was calculated as the percentage of nuclei in the myotubes with two or more nuclei stained with MHC. The myotube size was calculated as the number of nuclei in the myotube stained with MHC.

[3] = tested on: tibialis anterior (TA) muscles; assay: Muscle regeneration after BaCl2 induced muscle injury, NP-UNE-L injected with BaCl2; assay type: in vivo, BL6 mice; conditions: given as NP-UNE-L with BaCl2 into TA, vs NP in contralateral TA, 7 days, FIG. 16
Experimental: Particularly, BaCl2 (prepared in saline at the concentration of 1.2% wt/vol: 50 μl) was injected into the tibialis anterior (TA) muscles of 10-week-old BL6 mice to induce muscle injury (Sun et al., 2011, J. Cell Biol. 192, 69-81). NP-UNE-L was injected with BaCl2 on the left side and NP was injected with BaCl2 on the right side. 7 days later, the mice were sacrificed and the tibialis anterior muscles were separated and placed in 2-methylbutane which was coldly prepared in liquid nitrogen, followed by embedding in TBS tissue freezing medium. Cryosection was performed at −20° C. to the thickness of 10 μm by using a cryostat (Microm HM550; Thermo Fisher Scientific). The prepared sections were placed on non-coated slides, followed by staining with hematoxylin and eosin (H&E). The stained slides were observed through a 10× dry objective lens of a microscope (DMI 4000B; Leica). The stained images were photographed with a 24-bit image camera (RETIGA EXi; Q Imaging) and the regenarating myofiber cross section area (CSA) was measured by image J. CSA was measured only in the myofibers showing the characteristics of regenerating myofiber with the nucleus in the center.

tibialis anterior (TA) = assay: Muscle regeneration after BaCl2 induced muscle injury in AAV-UNE-L injected tibialis anterior; assay type: in vivo, BL6 mice; conditions: expressed from AAV-UNE-L in TA, vs AAV-GFP contralateral
Experimental: Particularly, AAV-UNE-L was injected into the left tibialis anterior (TA) of 10-week-old BL6 mice and AAV-GFP was injected into the right tibialis anterior (TA) of 10-week-old BL6 mice, and after 7 weeks, BaCl2 (prepared in saline at the concentration of 1.2% wt/vol: 50 μl) was injected to induce muscle injury (Sun et al., 2011, J. Cell Biol. 192, 69-81). 7 days later, the mice were sacrificed and the tibialis anterior muscles were separated and fixed in 10% paraformaldehyde, followed by embedding in paraffin. The section was performed to the thickness of 10 μm, and the prepared sections were placed on non-coated slides, followed by staining with hematoxylin and eosin (H&E). The stained slides were observed through a 10× dry objective lens of a microscope (Olympus CKX3-Houn Microscope). The stained images were photographed with 24-bit image and the regenarating myofiber cross section area (CSA) was measured by image J. CSA was measured only in the myofibers showing the characteristics of regenerating myofiber with the nucleus in the center.

T1 sequence (Q6PF93 whole entry): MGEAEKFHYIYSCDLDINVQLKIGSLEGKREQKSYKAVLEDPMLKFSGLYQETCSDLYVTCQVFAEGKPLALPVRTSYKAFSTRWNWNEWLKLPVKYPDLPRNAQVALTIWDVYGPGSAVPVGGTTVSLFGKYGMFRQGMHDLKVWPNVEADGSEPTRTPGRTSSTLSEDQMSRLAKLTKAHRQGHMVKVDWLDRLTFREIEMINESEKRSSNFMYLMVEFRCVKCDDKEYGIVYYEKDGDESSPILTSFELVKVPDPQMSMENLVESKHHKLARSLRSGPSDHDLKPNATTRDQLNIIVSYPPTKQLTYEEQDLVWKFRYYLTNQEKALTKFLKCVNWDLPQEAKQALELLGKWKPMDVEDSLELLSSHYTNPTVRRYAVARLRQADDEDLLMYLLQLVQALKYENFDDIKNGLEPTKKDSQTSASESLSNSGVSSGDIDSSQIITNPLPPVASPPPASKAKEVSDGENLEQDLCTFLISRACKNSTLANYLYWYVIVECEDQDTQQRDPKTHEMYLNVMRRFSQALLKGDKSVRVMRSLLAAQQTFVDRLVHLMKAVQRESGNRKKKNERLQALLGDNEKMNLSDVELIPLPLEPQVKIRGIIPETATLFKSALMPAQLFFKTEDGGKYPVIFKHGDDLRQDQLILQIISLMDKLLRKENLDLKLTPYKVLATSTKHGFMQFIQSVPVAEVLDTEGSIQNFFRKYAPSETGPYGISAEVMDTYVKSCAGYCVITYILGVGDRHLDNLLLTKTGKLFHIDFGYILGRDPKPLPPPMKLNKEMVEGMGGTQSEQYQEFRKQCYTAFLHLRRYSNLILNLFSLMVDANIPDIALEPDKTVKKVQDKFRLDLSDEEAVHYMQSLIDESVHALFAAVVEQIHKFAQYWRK
T1 sequence (Q8VD65 whole entry partner): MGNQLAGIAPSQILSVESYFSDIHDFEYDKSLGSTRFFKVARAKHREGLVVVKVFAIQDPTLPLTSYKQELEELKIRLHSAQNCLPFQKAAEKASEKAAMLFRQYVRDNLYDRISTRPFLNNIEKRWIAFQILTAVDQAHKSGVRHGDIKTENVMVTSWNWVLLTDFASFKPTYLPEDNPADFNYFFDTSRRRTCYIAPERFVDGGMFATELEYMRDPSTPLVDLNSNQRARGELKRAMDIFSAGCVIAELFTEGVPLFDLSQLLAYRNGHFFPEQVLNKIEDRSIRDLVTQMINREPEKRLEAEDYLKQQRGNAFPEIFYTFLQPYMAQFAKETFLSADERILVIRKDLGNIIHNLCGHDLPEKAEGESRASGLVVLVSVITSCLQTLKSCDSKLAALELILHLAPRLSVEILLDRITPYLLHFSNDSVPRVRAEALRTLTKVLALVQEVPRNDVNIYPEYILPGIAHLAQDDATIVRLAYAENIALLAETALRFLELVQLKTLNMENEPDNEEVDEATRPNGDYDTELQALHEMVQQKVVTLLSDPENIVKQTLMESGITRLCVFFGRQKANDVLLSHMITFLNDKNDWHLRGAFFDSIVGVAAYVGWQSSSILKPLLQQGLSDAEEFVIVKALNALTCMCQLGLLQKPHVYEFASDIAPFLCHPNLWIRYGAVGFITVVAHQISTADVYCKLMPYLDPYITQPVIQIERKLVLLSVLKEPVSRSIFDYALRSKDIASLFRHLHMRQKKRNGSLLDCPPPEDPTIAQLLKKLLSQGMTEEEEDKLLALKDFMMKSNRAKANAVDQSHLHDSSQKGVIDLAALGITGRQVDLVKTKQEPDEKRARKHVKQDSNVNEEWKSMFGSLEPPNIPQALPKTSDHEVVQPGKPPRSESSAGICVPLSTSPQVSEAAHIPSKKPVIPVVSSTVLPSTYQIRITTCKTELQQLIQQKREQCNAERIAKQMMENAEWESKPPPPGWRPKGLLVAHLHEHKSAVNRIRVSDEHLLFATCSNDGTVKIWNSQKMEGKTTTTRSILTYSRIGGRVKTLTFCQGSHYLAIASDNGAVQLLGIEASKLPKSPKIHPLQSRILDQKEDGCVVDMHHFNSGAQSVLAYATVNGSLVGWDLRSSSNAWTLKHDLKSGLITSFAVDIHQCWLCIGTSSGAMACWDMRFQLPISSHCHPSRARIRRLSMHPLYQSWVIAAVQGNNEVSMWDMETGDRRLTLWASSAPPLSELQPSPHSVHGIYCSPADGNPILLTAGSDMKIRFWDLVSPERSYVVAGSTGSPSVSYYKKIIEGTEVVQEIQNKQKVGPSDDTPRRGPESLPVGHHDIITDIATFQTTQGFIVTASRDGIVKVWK

Molecule: C[C@@H]1COCCN1c1cc(=O)n2c(n1)N(Cc1cncc(Cl)c1)[C@H](C(F)(F)F)CC2 [SAR405]
- S6K1 phosphorylation increased by LRS overexpression ([1]; HEK293 cells co-transfected with Myc-LRS and Myc-S6K1, SAR405 3 μM, FIG. 3C): reduced
- S6K1 phosphorylation induced by total amino acids ([1]; HEK293 cells, FIG. 3B): reduced
- concentration at which S6K1 phosphorylation was completely inhibited ([1]; HEK293 cells, tested at 0.1, 0.3, 1, 3 and 10 μM, amino acid stimulation): 3 µM

Molecule: GST-LRS protein: purified GST-LRS (leucyl-tRNA synthetase) protein expressed in E. coli BL21
- activity of Vps34 compared to the GST control (Vps34; purified protein added to Vps34 immune complex): about 3 times
- activity of Vps34 with leucine stimulation (Vps34; purified protein added to Vps34 immune complex, in the presence of leucine): further increased

Molecule: LRS mutation (F50A/Y52A): leucine binding deficient mutant of LRS
- activation of Vps34 (Vps34; regardless of the presence or absence of leucine stimulation): did not induce the activation of Vps34

Molecule: phosphatidic acid [PA]
- amount of phosphorylated S6K1 ([2]; LRS knocked-down, FIG. 11): increased again
- amount of S6K1 phosphorylated ([2]; both LRS and RagD knocked-down): partially increased

B1: UNE-L domain of LRS: UNE-L domain of leucyl-tRNA synthetase C-terminus, polypeptide of the amino acid sequence SEQ. ID. NO: 1 (protein, listed as Homo sapiens)
chain: PGVSVSLVNPQPSNGHFSTKIEIRQGDNCDSIIRRLMKMNRGIKDLSKVKLMRFDDPLLGPRRVPVLGKEYTEKTPISEHAVFNVDLMSKKIHLTENGIRVDIGDTIIYLVH
- differentiation index of C2C12 cells (C2C12 cells): increased
- fusion index of C2C12 cells (C2C12 cells): increased
- myotube size (C2C12 cells): increased
- CSA of the muscle fibers generated during muscle regeneration [3]: increased
- CSA of the muscle fibers generated during muscle regeneration (tibialis anterior (TA); BaCl2 after 7 weeks, 7 days later, FIGS. 18A and 18B): increased
- mean value of CSA (tibialis anterior (TA); FIG. 18C): increased significantly
